From patent publication US20250011363A1, “OPTIMIZED SHORTENED PEPTIDE THAT BINDS TO ACETYLCHOLINE RECEPTOR, AND USE THEREOF” (SKINMED CO., LTD., priority 2021, published 2025)

The binders below were run against acetylcholine receptor (assay: SPR, receptor immobilised on chip, peptide at 10 µM).

Compared with RSFSKR [6mer-2-468], KWYTRK [6mer-2-478] is higher in Binding affinity: 133 RU for the first, 145 RU for the second.

Compared with KWRLKK [6mer-2-479], KLLCKK [6mer-2-495] is lower in Binding affinity: 154 RU for the first, 121 RU for the second.

Going from RRYLKK [6mer-2-483] to RWQQRR [6mer-2-474], the Binding affinity rises from 121 RU to 128 RU.

First: KSYTRR [6mer-2-497]
Second: RVRYRK [6mer-2-496]
The Binding affinity of the first is higher: 148 RU for the first, 144 RU for the second.

First: RGRLRK [6mer-2-473]
Second: KSYTKR [6mer-2-487]
The Binding affinity of the first is higher: 131 RU for the first, 121 RU for the second.

First: KGQTRR [6mer-2-482]
Second: KRICKR [6mer-2-491]
The Binding affinity of the first is higher: 154 RU for the first, 135 RU for the second.

First: KGLCRR [6mer-2-498]
Second: KGIRKK [6mer-2-476]
The Binding affinity of the first is lower: 127 RU for the first, 148 RU for the second.

Compared with KSFCKR [6mer-2-502], KRQCKK [6mer-2-505] is higher in Binding affinity: 144 RU for the first, 148 RU for the second.

First: KRFCRR [6mer-2-475]
Second: RQIQKR [6mer-2-485]
The Binding affinity of the first is lower: 139 RU for the first, 148 RU for the second.

Going from RSRLRR [6mer-2-472] to KQQSKK [6mer-2-486], the Binding affinity falls from 148 RU to 121 RU.

Going from KVYRRK [6mer-2-488] to KGVRRK [6mer-2-493], the Binding affinity falls from 146 RU to 123 RU.

Going from KGLLRR [6mer-2-494] to RWYTKR [6mer-2-484], the Binding affinity rises from 144 RU to 148 RU.

Going from KRICRR [6mer-2-500] to KVQTKK [6mer-2-503], the Binding affinity rises from 146 RU to 154 RU.

Going from RLIQKK [6mer-2-492] to RLRTKK [6mer-2-469], the Binding affinity rises from 148 RU to 153 RU.

KSLLKK [6mer-2-506] and RSRTRR [6mer-2-477] are the same in Binding affinity: 135 RU for the first, 135 RU for the second.

Compared with KSYSKK [6mer-2-501], RLFTKR [6mer-2-499] is higher in Binding affinity: 144 RU for the first, 145 RU for the second.

First: RRYQKK [6mer-2-490]
Second: RLRRRK [6mer-2-470]
The Binding affinity of the first is lower: 145 RU for the first, 153 RU for the second.

Compared with RRFTKK [6mer-2-480], RVISKK [6mer-2-489] is lower in Binding affinity: 147 RU for the first, 142 RU for the second.

Going from RGLTRK [6mer-2-504] to RQRYKK [6mer-2-481], the Binding affinity falls from 154 RU to 131 RU.

With KWISRR [6mer-2-471] the Binding affinity was 136 RU.

The binders below were run against acetylcholine receptor (assay: SPR, AchR immobilized on chip).

KWRQKR [6mer-2-233] was tested, and the Binding affinity (RU) was 190 RU.

What follows are binders tested against acetylcholine receptor (assay: SPR, AchR immobilized on CM5 chip, peptide 10 µM).

First: RGQYKK [6mer-2-239]
Second: RRFSKR [6mer-2-244]
The Binding affinity (RU) of the first is lower: 125 RU for the first, 139 RU for the second.

Going from KWILKR [6mer-2-262] to RSLSKR [6mer-2-245], the Binding affinity (RU) falls from 142 RU to 135 RU.

Going from KRVLKR [6mer-2-243] to RRRRRK [6mer-2-238], the Binding affinity (RU) falls from 148 RU to 142 RU.

Compared with KLRSRR [6mer-2-253], RWQTKK [6mer-2-266] is lower in Binding affinity (RU): 145 RU for the first, 131 RU for the second.

First: KLYSRR [6mer-2-267]
Second: KVFRKK [6mer-2-252]
The Binding affinity (RU) of the first is lower: 141 RU for the first, 148 RU for the second.

Compared with RLRRKK [6mer-2-255], KRIQRR [6mer-2-254] is higher in Binding affinity (RU): 139 RU for the first, 148 RU for the second.

Going from RSQTKR [6mer-2-234] to KQFTRK [6mer-2-232], the Binding affinity (RU) falls from 142 RU to 135 RU.

First: KWQQKK [6mer-2-236]
Second: RWYTKK [6mer-2-261]
The Binding affinity (RU) of the first is higher: 131 RU for the first, 121 RU for the second.

Compared with KRIYRR [6mer-2-258], RRFCKR [6mer-2-260] is higher in Binding affinity (RU): 125 RU for the first, 142 RU for the second.

First: RSYTRR [6mer-2-248]
Second: KRFCRK [6mer-2-257]
The Binding affinity (RU) of the first is higher: 154 RU for the first, 144 RU for the second.

Compared with KSQLKR [6mer-2-264], RRICKR [6mer-2-263] is higher in Binding affinity (RU): 127 RU for the first, 145 RU for the second.

Going from RQICKK [6mer-2-268] to RWIQRR [6mer-2-230], the Binding affinity (RU) falls from 139 RU to 135 RU.

Going from RRRCRK [6mer-2-240] to RGLRKR [6mer-2-249], the Binding affinity (RU) falls from 142 RU to 136 RU.

First: KSQRRR [6mer-2-242]
Second: RLVYKR [6mer-2-237]
The Binding affinity (RU) of the first is higher: 135 RU for the first, 123 RU for the second.

Going from KLVRKK [6mer-2-235] to RRQTRK [6mer-2-265], the Binding affinity (RU) falls from 136 RU to 135 RU.

First: KQLTKR [6mer-2-241]
Second: KSQQKR [6mer-2-256]
The Binding affinity (RU) of the first is lower: 135 RU for the first, 142 RU for the second.

Going from KGYQKK [6mer-2-247] to KGISKK [6mer-2-231], the Binding affinity (RU) falls from 146 RU to 144 RU.

Going from KWRQKR [6mer-2-233] to RVQSKR [6mer-2-259], the Binding affinity (RU) falls from 190 RU to 128 RU.

Going from KWISKK [6mer-2-246] to KSQTKR [6mer-2-251], the Binding affinity (RU) rises from 123 RU to 142 RU.

KRRRKK [6mer-2-250] showed a Binding affinity (RU) of 145 RU.
